Source: patent US20050112119A1 (Takeda / Millennium, published 2005)

T1: human CXCR3 (human, UniProt P49682 1-368)
T1 sequence: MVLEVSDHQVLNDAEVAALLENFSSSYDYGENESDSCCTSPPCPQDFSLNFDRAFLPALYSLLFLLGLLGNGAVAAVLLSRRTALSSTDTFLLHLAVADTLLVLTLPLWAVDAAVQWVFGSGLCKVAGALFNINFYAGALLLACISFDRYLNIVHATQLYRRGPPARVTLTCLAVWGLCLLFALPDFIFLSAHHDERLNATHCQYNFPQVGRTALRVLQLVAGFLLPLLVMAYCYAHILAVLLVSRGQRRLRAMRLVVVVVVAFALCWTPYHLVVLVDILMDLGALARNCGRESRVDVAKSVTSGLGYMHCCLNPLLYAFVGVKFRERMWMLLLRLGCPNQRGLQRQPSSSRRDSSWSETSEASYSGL

T2: human CCR3 (human, UniProt P51677 1-355)
T2 construct: whole, on cells
T2 sequence (looked up): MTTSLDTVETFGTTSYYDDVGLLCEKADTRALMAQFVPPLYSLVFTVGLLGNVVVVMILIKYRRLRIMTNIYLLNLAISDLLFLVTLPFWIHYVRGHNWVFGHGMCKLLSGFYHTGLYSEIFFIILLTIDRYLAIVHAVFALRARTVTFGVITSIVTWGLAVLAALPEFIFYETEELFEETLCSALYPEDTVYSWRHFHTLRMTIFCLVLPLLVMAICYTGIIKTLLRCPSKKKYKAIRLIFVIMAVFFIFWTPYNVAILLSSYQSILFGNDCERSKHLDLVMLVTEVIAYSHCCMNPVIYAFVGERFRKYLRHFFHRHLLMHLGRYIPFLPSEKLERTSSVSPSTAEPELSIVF

T3: human CCR4 (human, UniProt P51679 1-360)
T3 construct: whole, on cells
T3 sequence (looked up): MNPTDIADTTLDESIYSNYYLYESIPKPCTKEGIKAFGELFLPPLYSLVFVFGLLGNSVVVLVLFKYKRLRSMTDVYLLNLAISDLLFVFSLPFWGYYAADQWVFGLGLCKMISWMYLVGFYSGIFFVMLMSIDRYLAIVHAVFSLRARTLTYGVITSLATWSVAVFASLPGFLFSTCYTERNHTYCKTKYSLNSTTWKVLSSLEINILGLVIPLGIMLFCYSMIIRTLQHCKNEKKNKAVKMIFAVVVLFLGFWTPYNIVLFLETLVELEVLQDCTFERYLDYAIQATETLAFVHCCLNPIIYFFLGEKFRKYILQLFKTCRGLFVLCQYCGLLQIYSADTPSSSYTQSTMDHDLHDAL

T4: human CXCR1 (human, UniProt P25024 1-350)
T4 construct: whole, on cells
T4 sequence (looked up): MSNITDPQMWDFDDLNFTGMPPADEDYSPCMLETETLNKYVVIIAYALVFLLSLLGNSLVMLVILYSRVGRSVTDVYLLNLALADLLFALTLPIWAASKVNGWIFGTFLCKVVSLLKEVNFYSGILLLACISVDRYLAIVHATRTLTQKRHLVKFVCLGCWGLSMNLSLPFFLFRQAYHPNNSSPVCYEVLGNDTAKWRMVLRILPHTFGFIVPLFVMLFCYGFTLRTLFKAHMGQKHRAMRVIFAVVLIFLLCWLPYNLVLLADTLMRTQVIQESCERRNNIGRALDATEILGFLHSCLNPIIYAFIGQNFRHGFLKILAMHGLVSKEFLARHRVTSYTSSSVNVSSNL

T5: human CXCR2 (human, UniProt P25025 1-360)
T5 construct: whole, on cells
T5 sequence (looked up): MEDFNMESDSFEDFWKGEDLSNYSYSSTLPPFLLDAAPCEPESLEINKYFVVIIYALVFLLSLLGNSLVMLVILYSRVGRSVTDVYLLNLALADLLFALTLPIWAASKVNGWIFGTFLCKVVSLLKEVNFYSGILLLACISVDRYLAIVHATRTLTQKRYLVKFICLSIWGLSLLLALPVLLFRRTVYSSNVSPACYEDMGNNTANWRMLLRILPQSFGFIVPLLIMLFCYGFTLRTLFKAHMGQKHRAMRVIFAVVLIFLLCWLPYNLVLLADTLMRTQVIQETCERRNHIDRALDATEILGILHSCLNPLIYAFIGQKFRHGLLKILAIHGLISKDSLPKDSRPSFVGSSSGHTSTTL

T6: human CCR1 (human, UniProt P32246 1-355)
T6 construct: whole, on cells
T6 sequence (looked up): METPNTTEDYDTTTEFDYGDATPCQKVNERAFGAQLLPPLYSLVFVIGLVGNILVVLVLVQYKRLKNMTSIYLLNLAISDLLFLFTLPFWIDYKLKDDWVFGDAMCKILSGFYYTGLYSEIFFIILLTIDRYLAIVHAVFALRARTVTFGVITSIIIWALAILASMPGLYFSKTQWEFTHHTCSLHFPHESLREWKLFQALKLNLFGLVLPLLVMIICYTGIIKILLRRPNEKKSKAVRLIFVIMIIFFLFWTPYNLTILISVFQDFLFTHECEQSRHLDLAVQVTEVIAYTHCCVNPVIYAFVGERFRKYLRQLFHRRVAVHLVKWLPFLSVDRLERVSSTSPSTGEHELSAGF


Key:
human CXCR3 [1] = target: T1, human CXCR3; experiment: cell-based or functional assay
human CCR3 = target: T2, human CCR3; experiment: flow cytometry, hybridoma supernatant on L1.2 transfectants, PE anti-human IgG
Method: (§1) Three days after the last immunization, five animals were sacrificed, their spleen cells were isolated, combined and used to produce hybridomas by standard methods. About 3×10⁸ spleen cells were fused with 5- to 10-fold fewer SP2/0-Ag14 fusion partner cells (ATCC, No. CRL-1581, Manassas, Va.) or P3X63Ag8.653 fusion partner cells (ATCC, No. CRL-1580, Manassas, Va.), by brief resuspension in polyethylene glycol 1500 (50% in 75 mM HEPES, Boehringer-Mannheim, now Roche Applied Science, Indianapolis, Ind.), to generate the hybridomas. After fusion, the cells were selected by incubation for two weeks in hypoxanthine, aminopterin, thymidine (HAT) medium specificity was assessed by staining CXCR3 transfectants, control L1.2 cells and L1.2 cells that expressed human CCR1, CCR2, CCR3, CCR4, CCR5, CXCR1, CXCR2, or CXCR4 (Qin et al. (1998) J. Clin. Invest. 101:746-54). The binding of antibody from the hybridoma supernatants to receptor transfectants was detected by phycoerythrin-conjugated anti-human IgG with analysis by flow cytometry. Positive wells were those that contained supernatant which stained the CXCR3 transfectants, but not L1.2 cells which expressed the other chemokine receptors tested. Positive wells were subcloned to yield hybridoma cell lines. Hybridoma cultures were maintained in DMEM with 10% fetal calf serum, 10 units/ml interleukin-6, 0.1% L-glutamine, and 0.1% penicillin/streptomycin.

human CCR4 = target: T3, human CCR4; experiment: as above
Method: as §1

human CCR5 = target: T7, human CCR5 (human, UniProt P51681 1-352); experiment: as above
T7 construct: whole, on cells
T7 sequence (P51681 whole entry): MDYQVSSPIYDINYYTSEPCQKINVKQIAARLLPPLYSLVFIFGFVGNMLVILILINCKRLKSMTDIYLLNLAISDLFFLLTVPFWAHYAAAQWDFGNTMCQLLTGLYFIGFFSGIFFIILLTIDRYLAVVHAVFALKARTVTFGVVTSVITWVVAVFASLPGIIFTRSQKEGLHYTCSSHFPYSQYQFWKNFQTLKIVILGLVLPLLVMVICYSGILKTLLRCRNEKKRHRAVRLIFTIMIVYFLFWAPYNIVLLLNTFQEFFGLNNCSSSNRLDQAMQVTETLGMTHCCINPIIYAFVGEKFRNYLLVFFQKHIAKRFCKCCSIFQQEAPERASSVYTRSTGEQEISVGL
Method: as §1

human CXCR1 = target: T4, human CXCR1; experiment: as above
Method: as §1

human CXCR2 = target: T5, human CXCR2; experiment: as above
Method: as §1

human CXCR4 = target: T8, human CXCR4 (human, UniProt P61073 1-352); experiment: as above
T8 construct: whole, on cells
T8 sequence (P61073 whole entry): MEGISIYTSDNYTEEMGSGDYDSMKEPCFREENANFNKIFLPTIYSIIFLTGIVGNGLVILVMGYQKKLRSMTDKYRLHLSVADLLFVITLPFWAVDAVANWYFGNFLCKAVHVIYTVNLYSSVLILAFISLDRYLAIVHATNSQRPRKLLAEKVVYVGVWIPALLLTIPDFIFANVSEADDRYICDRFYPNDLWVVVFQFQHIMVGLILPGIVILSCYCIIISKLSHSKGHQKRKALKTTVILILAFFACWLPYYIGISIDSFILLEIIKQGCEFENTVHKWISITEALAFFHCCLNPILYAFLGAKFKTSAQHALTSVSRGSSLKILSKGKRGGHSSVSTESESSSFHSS
Method: as §1

human CCR1 = target: T6, human CCR1; experiment: as above
Method: as §1

human CCR2 = target: T9, human CCR2 (human, UniProt P41597 1-374); experiment: as above
T9 construct: whole, on cells
T9 sequence (P41597 whole entry): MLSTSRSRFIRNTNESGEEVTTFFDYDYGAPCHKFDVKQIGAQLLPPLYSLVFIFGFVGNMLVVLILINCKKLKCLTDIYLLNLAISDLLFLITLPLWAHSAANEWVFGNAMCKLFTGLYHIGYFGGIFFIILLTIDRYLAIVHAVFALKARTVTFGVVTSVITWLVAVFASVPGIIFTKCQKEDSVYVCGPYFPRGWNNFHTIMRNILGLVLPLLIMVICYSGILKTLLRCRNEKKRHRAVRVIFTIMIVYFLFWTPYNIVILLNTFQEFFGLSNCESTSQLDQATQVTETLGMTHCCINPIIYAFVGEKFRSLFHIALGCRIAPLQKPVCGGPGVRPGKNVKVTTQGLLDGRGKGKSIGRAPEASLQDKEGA
Method: as §1

human CXCR3 [2] = target: T1, human CXCR3; experiment: flow cytometry on CXCR3 L1.2 transfectants, biotinylated antibody, streptavidin-PE; 100% is the fluorescence at 10 µg/ml
Method: The strength of human monoclonal antibody 5H7 and human monoclonal antibody 7H5 binding to CXCR3 was measured using CXCR3 transfectants. The mean streptavidin-PE fluorescence detected when 10 μg/ml of each purified mAb was used to stain CXCR3 transfectants was used as 100% fluorescence.

IC50 of inhibition of chemotaxis of CXCR3 transfectants toward I-TAC (human CXCR3 [1]) | IC50 of inhibition of chemotaxis of CXCR3 transfectants toward IP-10 (human CXCR3 [1]) | IC50 of inhibition of chemotaxis of CXCR3 transfectants toward MIG (human CXCR3 [1]) | binding result (human CCR3) | binding result (human CCR4) | binding result (human CCR5) | binding result (human CXCR1) | binding result (human CXCR2) | binding result (human CXCR4) | binding result (human CCR1) | binding result (human CCR2) | EC50 (human CXCR3 [2]) | Binder
1.2 µg/mL | 0.7 µg/mL | 2.9 µg/mL | no binding | no binding | no binding | no binding | no binding | no binding | no binding | no binding | 0.5 nM | human monoclonal antibody 5H7 (antibody, human IgG2, V domains shown, The hybridoma antibody as tested is human IgG2, kappa; also called human mAb 5H7; antibody of hybridoma LS328-5H7-2-6 (ATCC PTA-5388)) VH: QVQVVQSGAEVKKPGASVKVSCKTSGYTFTGNYIHWVRQAPGQGLEWMGWINPNSGGTNFAQKFQGRVTMTRDTSITTAYMVLSRLRSDDTAVYYCARGGNNMIVVARGYYGMDVWGQGTTVTVSS VL: DIQMTQSPSSLSASVGDRVTITCRASQSIGRYLNWYQQKPGKAPKLLIYGASSLQSGVPSRFSGSGSGTEFTLTISSLQPEDFATYYCQQSFRVPISFGQGTRLEIK
– | – | – | no binding | no binding | no binding | no binding | no binding | no binding | no binding | no binding | 1.2 nM | human monoclonal antibody 7H5 (antibody, human IgG2, V domains shown, The hybridoma antibody as tested is human IgG2, kappa; also called human mAb 7H5; antibody of hybridoma LS329-7H5-2-19-7 (ATCC PTA-5389)) VH: QVQVVQSGAEVKKPGASVKVSCKASGYTFTGYYIHWVRQAPGQGLEWMGWINPDSGGTNYAQKFQGRVTMTRDTSISTAYMVLNRLRSDDTAVYYCAKGGINMIVVARGYYGMDVWGQGTTVTVSS VL: DIQMTQSPSSLSASVGDRVTITCRTSQSIGRYLNWYQQKPGKAPKLLIYGASSLQSGVPSRFSGSGSGTEFTFIISSLQPEDFATYYCQQSFRVPITFGQGTRLEIK
